Tests used:
[1] = biological target: p38b mitogen-activated protein kinase (Drosophila melanogaster) (UniProt O61443)
[2] = biological target: p38b mitogen-activated protein kinase (Drosophila melanogaster) (UniProt O61443); remark: listed apart in the source
[3] = biological target: p38b mitogen-activated protein kinase (Drosophila melanogaster) (UniProt O61443); remark: listed apart in the source

Chain of UniProt O61443 (O61443 whole entry): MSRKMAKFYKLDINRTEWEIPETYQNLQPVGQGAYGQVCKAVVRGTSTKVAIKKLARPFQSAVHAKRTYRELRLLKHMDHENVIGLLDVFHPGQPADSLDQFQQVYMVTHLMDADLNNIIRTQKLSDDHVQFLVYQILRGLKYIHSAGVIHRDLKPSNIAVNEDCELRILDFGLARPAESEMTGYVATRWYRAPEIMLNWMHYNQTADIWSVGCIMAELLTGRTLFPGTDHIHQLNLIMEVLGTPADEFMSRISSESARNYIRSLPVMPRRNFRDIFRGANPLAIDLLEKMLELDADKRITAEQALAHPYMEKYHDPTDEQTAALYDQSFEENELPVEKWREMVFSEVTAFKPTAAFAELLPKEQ

GST thiol transferase activity toward HED after 5 min with p38b at 1:1 molar ratio, percent change (a decrease by the discussion) against no p38b [1] [%]	p38b kinase activity toward Jun with the GST at 1:1 molar ratio (ADP Quest assay), fold against the reaction without GST [2] [fold]	GST conjugating activity toward CDNB after 5 min with p38b at 1:1 molar ratio, percent increase against no p38b [1] [%]	p38b kinase activity toward ATF2 with the GST at 1:1 molar ratio (ADP Quest assay), fold against the reaction without GST [2] [fold]	p38b kinase activity toward ATF2 with DmGSTT3b, fold against p38b with DmGSTT3a [3] [fold]	p38b kinase activity toward Jun with DmGSTT3b, fold against p38b with DmGSTT3a [3] [fold]	GST conjugating activity toward CDNB after 5 min with p38b at 1:1 molar ratio, percent decrease against no p38b [1] [%]	Substance
14	1.6	–	–	–	–	–	DmGSTO3 (enzyme)
–	2	58	–	–	–	–	DmGSTO1 (enzyme)
–	–	26	–	–	–	–	DmGSTO2a (enzyme)
–	4.3	14	3.1	–	–	–	DmGSTT2 (enzyme)
–	7.4	–	3.4	3.1	6.9	84	DmGSTT3b (enzyme)

Reference: PMC4207522, “Interaction of Omega, Sigma, and Theta glutathione transferases with p38b mitogenactivated protein kinase from the fruit fly, Drosophila melanogaster” (Journal of Insect Science, 2014)
